Key:
[1] = target: SpyCas9 (S. pyogenes), Q99ZW2; assay: cell-based or functional assay
Peptide 15 = target: T1, Peptide 15
T1 chain: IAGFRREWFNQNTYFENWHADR

Peptide 60 = target: T2, Peptide 60
T2 chain: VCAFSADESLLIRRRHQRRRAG

Peptide 91 = target: T3, Peptide 91
T3 chain: VYDFYRMLSHFFLKGPSR

Peptide 99 = target: T4, Peptide 99
T4 chain: RRSHIAWLLAMSLTWYS

Peptide 90 = target: T5, Peptide 90
T5 chain: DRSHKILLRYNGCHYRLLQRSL

Binder	IC50(uM), FRET cleavage assay [1] [µM]	reduced editing (compared to plasmid control), A549 GFP reporter cells [1] [%]	further results
LYYRIMLSCPKYYPCELVGHTS (modifications not checked) [Peptide 50]	145	30	
VCAFSADESLLIRRRHQRRRAG (modifications not checked) [Peptide 60]	92.2	30	
SauCas9 (protein) MKRNYILGLDIGITSVGYGIIDYETRDVIDAGVRLFKEANVENNEGRRSKRGARRLKRRRRHRIQRVKKLLFDYNLLTDHSELSGINPYEARVKGLSQKLSEEEFSAALLHLAKRRGVHNVNEVEEDTGNELSTKEQISRNSKALEEKYVAELQLERLKKDGEVRGSINRFKTSDYVKEAKQLLKVQKAYHQLDQSFIDTYIDLLETRRTYYEGPGEGSPFGWKDIKEWYEMLMGHCTYFPEELRSVKYAYNADLYNALNDLNNLVITRDENEKLEYYEKFQIIENVFKQKKKPTLKQIAKEILVNEEDIKGYRVTSTGKPEFTNLKVYHDIKDITARKEIIENAELLDQIAKILTIYQSSEDIQEELTNLNSELTQEEIEQISNLKGYTGTHNLSLKAINLILDELWHTNDNQIAIFNRLKLVPKKVDLSQQKEIPTTLVDDFILSPVVKRSFIQSIKVINAIIKKYGLPNDIIIELAREKNSKDAQKMINEMQKRNRQTNERIEEIIRTTGKENAKYLIEKIKLHDMQEGKCLYSLEAIPLEDLLNNPFNYEVDHIIPRSVSFDNSFNNKVLVKQEENSKKGNRTPFQYLSSSDSKISYETFKKHILNLAKGKGRISKTKKEYLLEERDINRFSVQKDFINRNLVDTRYATRGLMNLLRSYFRVNNLDVKVKSINGGFTSFLRRKWKFKKERNKGYKHHAEDALIIANADFIFKEWKKLDKAKKVMENQMFEEKQAESMPEIETEQEYKEIFITPHQIKHIKDFKDYKYSHRVDKKPNRELINDTLYSTRKDDKGNTLIVNNLNGLYDKDNDKLKKLINKSPEKLLMYHHDPQTYQKLKLIMEQYGDEKNPLYKYYEETGNYLTKYSKKDNGPVIKKIKYYGNKLNAHLDITDDYPNSRNKVVKLSLKPYRFDVYLDNGVYKFVTVKNLDVIKKENYYEVNSKCYEEAKKLKKISNQAEFIASFYNNDLIKINGELYRVIGVNNDLLNRIEVNMIDITYREYLENMNDKRPPRIIKTIASKTQSIKKYSTDILGNLYEVKSKKHPQIIKKG			% activity, FRET cleavage assay (Peptide 15): Peptide15 significantly reduced activity of CjeCas9 and SpyCas9 and SauCas9 at 200 µM (P<0.01); % activity, FRET cleavage assay (Peptide 60): Peptide 60, 90, and 91 significantly reduced activity of SauCas9 and SpyCas9 at 200 µM (P<0.005); % activity, FRET cleavage assay (Peptide 91): Peptide 60, 90, and 91 significantly reduced activity of SauCas9 and SpyCas9 at 200 µM (P<0.005); reduction in cleavage-based fluorescence at 200 µM peptide, FRET assay (Many MPs): Many MPs also reduced SauCas9 and CjeCas9 mediated cleavage at 200 µM with a greater than 80% reduction in fluorescence; % activity, FRET cleavage assay (Peptide 99): Peptide 99 significantly reduced activity of all three Cas9 variants at 100 and 200 µM (P<0.005); % activity, FRET cleavage assay (Peptide 90): Peptide 60, 90, and 91 significantly reduced activity of SauCas9 and SpyCas9 at 200 µM (P<0.005)
LNVKIGNAHLTTIMSTMPLVLC (modifications not checked) [Peptide 63]	97.9		
IAGFRREWFNQNTYFENWHADR (modifications not checked) [Peptide 15]		21	
CjeCas9 (protein) MARILAFDIGISSIGWAFSENDELKDCGVRIFTKVENPKTGESLALPRRLARSARKRLARRKARLNHLKHLIANEFKLNYEDYQSFDESLAKAYKGSLISPYELRFRALNELLSKQDFARVILHIAKRRGYDDIKNSDDKEKGAILKAIKQNEEKLANYQSVGEYLYKEYFQKFKENSKEFTNVRNKKESYERCIAQSFLKDELKLIFKKQREFGFSFSKKFEEEVLSVAFYKRALKDFSHLVGNCSFFTDEKRAPKNSPLAFMFVALTRIINLLNNLKNTEGILYTKDDLNALLNEVLKNGTLTYKQTKKLLGLSDDYEFKGEKGTYFIEFKKYKEFIKALGEHNLSQDDLNEIAKDITLIKDEIKLKKALAKYDLNQNQIDSLSKLEFKDHLNISFKALKLVTPLMLEGKKYDEACNELNLKVAINEDKKDFLPAFNETYYKDEVTNPVVLRAIKEYRKVLNALLKKYGKVHKINIELAREVGKNHSQRAKIEKEQNENYKAKKDAELECEKLGLKINSKNILKLRLFKEQKEFCAYSGEKIKISDLQDEKMLEIDHIYPYSRSFDDSYMNKVLVFTKQNQEKLNQTPFEAFGNDSAKWQKIEVLAKNLPTKKQKRILDKNYKDKEQKNFKDRNLNDTRYIARLVLNYTKDYLDFLPLSDDENTKLNDTQKGSKVHVEAKSGMLTSALRHTWGFSAKDRNNHLHHAIDAVIIAYANNSIVKAFSDFKKEQESNSAELYAKKISELDYKNKRKFFEPFSGFRQKVLDKIDEIFVSKPERKKPSGALHEETFRKEEEFYQSYGGKEGVLKALELGKIRKVNGKIVKNGDMFRVDIFKHKKTNKFYAVPIYTMDFALKVLPNKAVARSKKGEIKDWILMDENYEFCFSLYKDSLILIQTKDMQEPEFVYYNAFTSSTVSLIVSKHDNKFETLSKNQKILFKNANEKEVIAKSIGIQNLKVFEKYIVSALGEVTKAEFRQREDFKK			% activity, FRET cleavage assay (Peptide 15): Peptide15 significantly reduced activity of CjeCas9 and SpyCas9 and SauCas9 at 200 µM (P<0.01); reduction in cleavage-based fluorescence at 200 µM peptide, FRET assay (Many MPs): Many MPs also reduced SauCas9 and CjeCas9 mediated cleavage at 200 µM with a greater than 80% reduction in fluorescence; % activity, FRET cleavage assay (Peptide 99): Peptide 99 significantly reduced activity of all three Cas9 variants at 100 and 200 µM (P<0.005)

Further lines, with some results ahead:

IC50(uM), FRET cleavage assay [1] [µM]	reduced editing (compared to plasmid control), A549 GFP reporter cells [1] [%]	Binder	further results
> 200		KERRRSLMQLSVKSNSLFLGGT (modifications not checked) [Peptide 82]	
48.5		RRSHIAWLLAMSLTWYS (modifications not checked) [Peptide 99]	
114	35	DRSHKILLRYNGCHYRLLQRSL (modifications not checked) [Peptide 90]	
